In publication PMC5493634, “Intermolecular steric inhibition of Ephexin4 is relieved by Elmo1” (Scientific Reports, 2017):

Target: the molecule itself
Test: cross-linking; 293T cells transfected with Ephexin4-FLAG, cells incubated with or without 0.25 mM BMH (PBS pH 7.3, 5 mM EDTA) at room temperature for 1 h, then lysed; anti-FLAG immunoblot (Fig. 2d)

B1: Ephexin4 (full-length, wild type) (natural protein, UniProt Q5VV41 1-709, looked up)
chain: MAQRHSDSSLEEKLLGHRFHSELRLDAGGNPASGLPMVRGSPRVRDDAAFQPQVPAPPQPRPPGHEEPWPIVLSTESPAALKLGTQQLIPKSLAVASKAKTPARHQSFGAAVLSREAARRDPKLLPAPSFSLDDMDVDKDPGGMLRRNLRNQSYRAAMKGLGKPGGQGDAIQLSPKLQALAEEPSQPHTRSPAKNKKTLGRKRGHKGSFKDDPQLYQEIQERGLNTSQESDDDILDESSSPEGTQKVDATIVVKSYRPAQVTWSQLPEVVELGILDQLSTEERKRQEAMFEILTSEFSYQHSLSILVEEFLQSKELRATVTQMEHHHLFSNILDVLGASQRFFEDLEQRHKAQVLVEDISDILEEHAEKHFHPYIAYCSNEVYQQRTLQKLISSNAAFREALREIERRPACGGLPMLSFLILPMQRVTRLPLLMDTLCLKTQGHSERYKAASRALKAISKLVRQCNEGAHRMERMEQMYTLHTQLDFSKVKSLPLISASRWLLKRGELFLVEETGLFRKIASRPTCYLFLFNDVLVVTKKKSEESYMVQDYAQMNHIQVEKIEPSELPLPGGGNRSSSVPHPFQVTLLRNSEGRQEQLLLSSDSASDRARWIVALTHSERQWQGLSSKGDLPQVEITKAFFAKQADEVTLQQADVVLVLQQEDGWLYGERLRDGETGWFPEDFARFITSRVAVEGNVRRMERLRVETDV
notes: Ephexin4, guanine nucleotide-exchange factor for RhoG; full-length; also called Epx4; Ephexin4-FLAG
- stoichiometry N: 3
